Experiments:
DNA substrate = experiment: in vitro DNA ligation activity; format: biochemical
[1] = tested on: nicked substrates containing a single 5′-terminal ribonucleotide adjacent to the nick; conditions: cited from earlier work

B1: gp44/62: T4 clamp-loader prepared by co-expressing gp44 and gp62 (protein, UniProt P04526 1-319; P04527 1-187, looked up)
Sliding-clamp-loader large …: MITVNEKEHILEQKYRPSTIDECILPAFDKETFKSITSKGKIPHIILHSPSPGTGKTTVAKALCHDVNADMMFVNGSDCKIDFVRGPLTNFASAASFDGRQKVIVIDEFDRSGLAESQRHLRSFMEAYSSNCSIIITANNIDGIIKPLQSRCRVITFGQPTDEDKIEMMKQMIRRLTEICKHEGIAIADMKVVAALVKKNFPDFRKTIGELDSYSSKGVLDAGILSLVTNDRGAIDDVLESLKNKDVKQLRALAPKYAADYSWFVGKLAEEIYSRVTPQSIIRMYEIVGENNQYHGIAANTELHLAYLFIQLACEMQWK
Sliding-clamp-loader small …: MSLFKDDIQLNEHQVAWYSKDWTAVQSAADSFKEKAENEFFEIIGAINNKTKCSIAQKDYSKFMVENALSQFPECMPAVYAMNLIGSGLSDEAHFNYLMAAVPRGKRYGKWAKLVEDSTEVLIIKLLAKRYQVNTNDAINYKSILTKNGKLPLVLKELKGLVTDDFLKEVTKNVKEQKQLKKLALEW
DNA ligase activity of the preparation (DNA substrate; control of gp45 and gp44/62 preparations, data not shown): no detectable DNA ligase activity

B2: E. coli LigA: E. coli NAD+-dependent DNA ligase (protein, UniProt P15042 1-671, looked up)
DNA ligase: MESIEQQLTELRTTLRHHEYLYHVMDAPEIPDAEYDRLMRELRELETKHPELITPDSPTQRVGAAPLAAFSQIRHEVPMLSLDNVFDEESFLAFNKRVQDRLKNNEKVTWCCELKLDGLAVSILYENGVLVSAATRGDGTTGEDITSNVRTIRAIPLKLHGENIPARLEVRGEVFLPQAGFEKINEDARRTGGKVFANPRNAAAGSLRQLDPRITAKRPLTFFCYGVGVLEGGELPDTHLGRLLQFKKWGLPVSDRVTLCESAEEVLAFYHKVEEDRPTLGFDIDGVVIKVNSLAQQEQLGFVARAPRWAVAFKFPAQEQMTFVRDVEFQVGRTGAITPVARLEPVHVAGVLVSNATLHNADEIERLGLRIGDKVVIRRAGDVIPQVVNVVLSERPEDTREVVFPTHCPVCGSDVERVEGEAVARCTGGLICGAQRKESLKHFVSRRAMDVDGMGDKIIDQLVEKEYVHTPADLFKLTAGKLTGLERMGPKSAQNVVNALEKAKETTFARFLYALGIREVGEATAAGLAAYFGTLEALEAASIEELQKVPDVGIVVASHVHNFFAEESNRNVISELLAEGVHWPAPIVINAEEIDSPFAGKTVVLTGSLSQMSRDDAKARLVELGAKVAGSVSKKTDLVIAGEAAGSKLAKAQELGIEVIDEAEMLRLLGS
ligation activity on nicked substrate with 5′-terminal ribonucleotide [1]: ligates this substrate as well as it does a regular DNA substrate

B3: T4 DNA ligase: Full-length wild-type T4 DNA ligase (residues 1–487) (protein, UniProt P00970 1-487, looked up)
chain: MILKILNEIASIGSTKQKQAILEKNKDNELLKRVYRLTYSRGLQYYIKKWPKPGIATQSFGMLTLTDMLDFIEFTLATRKLTGNAAIEELTGYITDGKKDDVEVLRRVMMRDLECGASVSIANKVWPGLIPEQPQMLASSYDEKGINKNIKFPAFAQLKADGARCFAEVRGDELDDVRLLSRAGNEYLGLDLLKEELIKMTAEARQIHPEGVLIDGELVYHEQVKKEPEGLDFLFDAYPENSKAKEFAEVAESRTASNGIANKSLKGTISEKEAQCMKFQVWDYVPLVEIYSLPAFRLKYDVRFSKLEQMTSGYDKVILIENQVVNNLDEAKVIYKKYIDQGLEGIILKNIDGLWENARSKNLYKFKEVIDVDLKIVGIYPHRKDPTKAGGFILESECGKIKVNAGSGLKDKAGVKSHELDRTRIMENQNYYIGKILECECNGWLKSDGRTDYVKLFLPIAIRLREDKTKANTFEDVFGDFHEVTGL
modifications: full-length
ligation activity on nicked substrate with 5′-terminal ribonucleotide [1]: better ligation activity on the same substrate, although a fraction of the adenylated intermediate fail to complete the nick-sealing reaction

B4: T4LΔ(222–247)GS: internally truncated construct with a di-amino acid Gly-Ser substituted for residues 222–247 (protein)
chain: MILKILNEIASIGSTKQKQAILEKNKDNELLKRVYRLTYSRGLQYYIKKWPKPGIATQSFGMLTLTDMLDFIEFTLATRKLTGNAAIEELTGYITDGKKDDVEVLRRVMMRDLECGASVSIANKVWPGLIPEQPQMLASSYDEKGINKNIKFPAFAQLKADGARCFAEVRGDELDDVRLLSRAGNEYLGLDLLKEELIKMTAEARQIHPEGVLIDGELVYHGSAEVAESRTASNGIANKSLKGTISEKEAQCMKFQVWDYVPLVEIYSLPAFRLKYDVRFSKLEQMTSGYDKVILIENQVVNNLDEAKVIYKKYIDQGLEGIILKNIDGLWENARSKNLYKFKEVIDVDLKIVGIYPHRKDPTKAGGFILESECGKIKVNAGSGLKDKAGVKSHELDRTRIMENQNYYIGKILECECNGWLKSDGRTDYVKLFLPIAIRLREDKTKANTFEDVFGDFHEVTGL
modifications: left off: His6 (LEHHHHHH), C-terminal, kept
in vitro DNA ligation activity relative to wild-type (DNA substrate; vs wild-type T4 DNA ligase, Supplementary Figures S8, S10): comparable or slightly better
